{"source": "paper doi:10.1101/2025.08.07.668011", "assay_in_all_cases": "high-speed atomic force microscopy", "key": {"[1]": {"target": "EML4-ALK v3 with the subdomain region (191-217 aa residues) deleted (ddv3) (human) (UniProt Q9UM73)"}, "[2]": {"target": "EML4-ALK variant-3 (v3b, E6:A20) (human) (UniProt Q9UM73)"}, "[3]": {"target": "EML4-ALK variant-5 (v5a, E2:A20) (human) (UniProt Q9UM73)"}}, "note": "“And” between values parts separate entries of the source, which are not always exact repeats. Equal values may be shown once."}
{"substance": "EML4-ALK v3 with the subdomain region (191-217 aa residues) deleted (ddv3) (from UniProt Q9UM73 1058-1620) (natural protein)", "values": [{"measurement": "ratio of dimers", "setting": "[1]", "value": 28.1, "unit": "%"}, {"measurement": "ratio of trimers", "setting": "[1]", "value": 7.3, "unit": "%"}, {"measurement": "stoichiometry N", "setting": "[1]", "value": "2 and 3"}]}
{"substance": "EML4-ALK variant-3 (v3b, E6:A20) (from UniProt Q9UM73 1058-1620) (natural protein)", "values": [{"measurement": "ratio of dimers", "setting": "[2]", "value": 38.5, "unit": "%"}, {"measurement": "ratio of trimers", "setting": "[2]", "value": 9.3, "unit": "%"}, {"measurement": "stoichiometry N", "setting": "[2]", "value": "2 and 3"}]}
{"substance": "EML4-ALK variant-5 (v5a, E2:A20) (from UniProt Q9UM73 1058-1620) (natural protein)", "values": [{"measurement": "ratio of dimers", "setting": "[3]", "value": 29.8, "unit": "%"}, {"measurement": "ratio of trimers", "setting": "[3]", "value": 10.2, "unit": "%"}, {"measurement": "stoichiometry N", "setting": "[3]", "value": "2 and 3"}]}
